Test system: MS2 coat protein
Experiment: apparent KD of MS2 coat protein; higher = weaker reporter binding
Details: Eterna round: R107
Protocol: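 RNA-MaP round R107: designed RNA switches with theophylline, tryptophan, arginine or FMN aptamers are transcribed on-chip within common flanks. They are titrated with SNAP-549-labelled MS2 coat protein in RNA-MaP buffer (100 mM Tris pH 7.5, 80 mM KCl, 4 mM MgCl2), without ligand or with the indicated ligand. Median apparent KD per design.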

[1] = input ligand: theophylline 20 uM
[2] = input ligand: theophylline 2 mM
[3] = input ligand: tryptophan 2.4 mM

Sequence	apparent KD of MS2 coat protein (input ligand: arginine 13.2 mM) [nM]	apparent KD of MS2 coat protein [1] [nM]	apparent KD of MS2 coat protein [2] [nM]	apparent KD of MS2 coat protein (input ligand: none) [nM]	apparent KD of MS2 coat protein [3] [nM]
AAUACCGGAUCGGCCGCCACUGGUUGGCCCUGUGUACAUGAGGAUCACCCAUGUCCAUCCCAGACCAGGACCGGGAUCUUUGUGU [Ingeraza]	15.6	20	18.5		
AAUAGACAUGAGGAUCACCCAUGUAUGGAAGGAGCGGUGAAUAAGCCAGGUAGGUCGCCAGUGUGAGGGUUAUCUAUGUAAUAAA [#19 Exclusion - Arginine A]	27.4	41.6	35.7	38.4	40.8
AAUCGUAAGGCGGCCGCCACUACACAUGAGGAUCACCCAUGUCUCGCAGGCUUGCGUUGGGAUAGUAGGACCGGGCCAGUAAUAA [Exclusion - Tryptophan B (Freestyle 14)]	18.5	28.8	26.6		
AAUCUGAUUGCGGCCGCCACUAAUUUUCCAUGAGUAUUGCAAUUACAUGAGGAUCACCCAUGUCAUAGGACCGGGCAUGACAUCU [theeternabot_sameState_MS2_Trp_B_45]	104	202	309		
AAUGAGUGGUGGUCAAACAUGGGUGAUCAACGAGGACCGGUACGGCCGCCACUCGAUAACAUGAGGAUCACCCAUGUAAUAAUAA [|T'-M'-Trp-Ms2|_Design9]	55.5	492	683		
AAUGUAUGGCACAUGAGGAUCACCCAUGUGCGAGGACCGGUACGGCCGCCACUCGGUCAAGGGAUCUUACCUCUAUACAUUAAUG [XTryp A #22]	10.6	14.7	11.9		
AAUGUAUGGCACAUGAGGAUCACCCAUGUGCGAGGACCGGUACGGCCGCCACUCGGUCCUGGGAUCUUACAACUAUACAUUAAUG [XTryp A #20]	10.3	17.2	16.4		
AAUGUAUGGCACAUGAGGAUCACCCAUGUGCGAGGACCGGUACGGCCGCCACUCGGUCCUGGGAUCUUAUUACUAUACAUUAAUG [XTryp A #17]	11.8	15.7	12.5		
AAUUCCUCACAUGAGGAUCACCCAUGUGAAGGAGCGCCGAAUAAGGCAGGUAGGUCGCACAUGGAAACCGCUACGAAAGUAGCAA	13.1	64.8	20.5	20.5	21.3
AAUUCCUCACAUGAGGAUCACCCAUGUGAAGGAGCGCCGAAUAAGGCAGGUAGGUCGCACAUGGAAACCGCUGCGAAAGCAGCAA [MAT - Exclusion Arginine A - Mod of Eli - D25]	21	33.2	25	21.7	24.5
ACAAGUCCUCAUGAUACCAGCGAUGAGACAUAGUCUCAACAUGAGGAUCACCCAUGUAUUCGCCCUUGGCAGCAUACGGUUUUUG [Arleer]	85.1	373			517
ACACAUGAGGAUCACCCAUGUCCAAUAGAUACCAGUGAUACGGUGCACCCUUGGCAGCUGUUGCUGAGUGAUGGUUCCCUCGGAA [Same State Theophylline A GF4]	48.6	138			112
ACAUGAAGAACAGCGGUGGGCGCGCUCGAUACCAGUACUUUGAUUUACCCUUGGCAGCGACAUGAGGAUCACCCAUGUGAGAUGA [XTheo A #1]	16.9	22.4			18.6
ACAUGAGGAUCACCCAUGUAUGACUAUCCUCGAGGACCGGUACGGCCGCCACUCGAAGGAGUGGCUCGCGAGUGCGCACUUGCAA [5' end]	9.87	16.5	13.6	12.5	11.5
ACAUGAGGAUCACCCAUGUAUUACCGGGAAGGAGCGCGUAAGGACGCAGGUAGGUCGCUCGGCGUCGUGCCGGAAGGCACGACGA [#1 Same State - Arginine A Attempt #22 (HarryS)]	17.9	49.8	15.6	13.6	13.8
ACAUGAGGAUCACCCAUGUGAAGGCACGAUACCAGCUGAUCCCGUGGCCCUUGGCAGCGUCCGGUUUGGUCCGGCGGAUGAGACG [azamullin]	19.6	36.4			23.5
ACAUGAGGAUCACCCAUGUGGCGUCUUGAUACCAGACGAGAAGUAGUCCCUUGGCAGCAAAUACAUGAGGAUCACCCAUGUAGGA [cccmullin]	16.6	25.5			24.3

Sequence	apparent KD of MS2 coat protein (input ligand: arginine 13.2 mM) [nM]	apparent KD of MS2 coat protein [1] [nM]	apparent KD of MS2 coat protein [2] [nM]	apparent KD of MS2 coat protein (input ligand: none) [nM]	apparent KD of MS2 coat protein [3] [nM]
ACAUGAGGAUCACCCAUGUGUCCUCGAAAACGAGGACCGGUACGGCCGCCACUCGAAAUAAGCGACAAGCGAAAAGCUUGUCGCA [Mat - Exclusion - Trytophan A - D22]	57.6	194	135	113	406
ACAUGAGGAUCACCCAUGUGUGUAAAUCCUCGAGGACCGGUACGGCCGCCACUCGAUUGAGUGUAAGUUGAAUGUAACAUUCAAC [whbob_SS_trypto A_2s9]	46	134	144		
ACCGCGGUAUCGGCCGCCACUUGUGGGUUAAAUCUGGUACAUGAGGAUCACCCAUGUGUCUCCUCGAGGACCGGGAUAGCGUGAC [Geaner]	97.7	168	211		
ACCUGUACGAAAAGUGCAGGACACGGAAUACGAGGACCGGUACGGCCGCCACUCGGAUAAAACCUGAGGAUCACCCUGGUCCGUG [TrypAS 14 #AlternativeMS2 #Zipper #StaticStem]	27.7	43.5	34.6	24.6	22.6
ACCUGUACGAAAAGUGCAGGACAUGAAUAACGAGGACCGGUACGGCCGCCACUCGGGUAAUAACCUGAGGAUCACCCGGGUCAUG [TrypAS 6 #AlternativeMS2 #Zipper #StaticStem]	111	211	249	218	27.5
ACGACAUGAGGAUCACCCAUGUAAGGUGAUACCAGACGAAGUAAUGUCCCUUGGCAGCACACGCAUAGUUGCGAUUAUUGUACGA [JR_SSTheophyA_Sub007]	83.7	522			572
ACGACGGCUGCGGCCGCCACUGUACAUGAGGAUCACCCAUGUGUAGUAAUUGGGACCCUGUGUUACAGGACCGGGUAGUUGAUUA [Orquteer]	23.3	49	47.1		
ACGUAAUGCAGAAGGAGCGUCAUUUUAAAACAUGAGGAUCACCCAUGUAAUAUUUUUGUGUGACAGGUAGGUCGCUGAAGUACGA [JR_SSArginiB_Sub007]	13.9	17.7	14.4	13.4	11.8
ACGUAUGUCAGAAGGAGCGUCAAUAACAUGAGGAUCACCCAUGUAUUACAUAGGUAUAAUAGACAGGUAGGUCGCUGAAUUCGAA [JR_SSArginiB_Sub022]	22.4	46.4	31.2	29.2	27
ACGUCAUGGAGAACGUGACGACUUGUCGAUACCAGUGUUUGAUAGCGCCCUUGGCAGCGAACAUGAGGAUCACCCAUGUCAAGGG [#11 SameState-TheophyllineA]	51.7	84.6	88.9	72.8	66.4
ACGUCCAGGUUAAUCGUGGACAUGGUCGAUACCAGUAUUUUAAUCUACCCUUGGCAGCGACAUGAGGAUCACCCAUGUGCGAUGA [XTheo A #15]	11.7	14.7			13
ACGUCUCGAAAACUCGUAGUAACAAUAGAUACCAGUAGCGAGAGUUACCCUUGGCAGCUACAUGAGGAUCACCCAUGUACGAGGA [XTheo A #27]	19.1	26			18.1
ACUAGGCUCGGAAACGAGCCUAGGACAGAAGGAGCGUGGAUUAACACAGGUAGGUCGCUGACAUGAGGAUCACCCAUGUAUUUAU [SSAA #5]	19.9	31.2	25.6	27.3	21.9
ACUUGGUGGUGAUCCCUGCCAAGAGGUGAUACCAGCAUCGAAAGAUGCCCUUGGCAGCACCAACAUGAGGAUCACCCAUGUAAUA [(MT)''-(M)'-(T')-(Theo)-(Ms2)_Design1/22_6]	62.6	185			214
AGAAUGUAAUAUGGCAAAGUUAUAACCGAAGGAGCGCCGAAUAAGGCAGGUAGGUCGCGGAAACAUGAGGAUCACCCAUGUCCAU [Arginine A Same State; Euphoria Solution 3]	18.1	19	14.4	17.3	18
AGACAUGAGGAUCACCCAUGUAGUACGGAUACCAGAUCCAGAUGCGUCCCUUGGCAGCUGUAGUACAGCGUUACAUCGCUCAUAG [Exclusion - Theophylline A (Freestyle 25)]	21	44			36.4
AGACAUGAGGAUCACCCAUGUAGUAUGGAUACCAGAUGUAGAUUAGUCCCUUGGCAGCUGUGGUGAAGUGAUGCAUUGCUCCUAG [Exclusion - Theophylline A (Freestyle 1)]	19.5	36.4			23.2
